Tests used:
[1] = molecular target: T1, choline-O-sulfatase (COS) (Sinorhizobium meliloti, UniProt O69787); test: isothermal titration calorimetry, multiple injections; type: biochemical; settings: substrate inhibition constant, second site; 200 mM Tris-HCl pH 7.5, 500 mM NaCl, 25 °C; enzyme without FGly
T1 construct: gene betC; full length, C-terminal His6 tag kept, pET26b+, codon-optimized gene, E. coli BL21(DE3); 59 kDa, homodimer (123 kDa); active-site Cys54 unmodified (no formylglycine)
Excerpt: (§1) isothermal titration calorimetry, multiple injections on choline-O-sulfatase (COS)

[2] = molecular target: T1, choline-O-sulfatase (COS); test: spectrophotometric pNPS hydrolysis, […] nm; type: biochemical
[3] = molecular target: the molecule itself; test: SEC; analytical gel filtration on Superdex 200 10/300 GL, non-denaturing conditions, calibrated with Bio-Rad Gel Filtration Standard (1.35-670 kDa)
[4] = substrate: C[N+](C)(C)CCOS(=O)(=O)[O-]; test: isothermal titration calorimetry, multiple injections; type: biochemical, Sinorhizobium meliloti; settings: 200 mM Tris-HCl pH 7.5, 500 mM NaCl, 25 °C, fit with substrate inhibition, enzyme without FGly
Excerpt: as §1

purified protein [5] = substrate: O=[N+]([O-])c1ccc(OS(=O)(=O)O)cc1; test: purified protein; type: biochemical, Sinorhizobium meliloti; settings: 200 mM Tris-HCl pH 7.5, 500 mM NaCl, 25 °C, 1-80 mM substrate, no saturation reached, enzyme without FGly
purified protein [6] = substrate: Cc1cc(=O)oc2cc(OS(=O)(=O)O)ccc12; test: purified protein; type: biochemical, Sinorhizobium meliloti; settings: 200 mM Tris-HCl pH 7.5, 500 mM NaCl, 25 °C, 1-20 mM substrate, no saturation reached, enzyme without FGly

C[N+](C)(C)CCOS(=O)(=O)[O-] [choline-O-sulfate]
Ki (mM) ^a [1]: 11.4 ± 1.1 mM

C[N+](C)(C)CCO [choline]
Ki [2]: 57.8 mM

B1: Ensifer (Sinorhizobium) meliloti choline-O-sulfatase (enzyme, UniProt O69787 1-512, looked up)
chain: MTTGKPNILIIMVDQLNGKLFPDGPADFLHAPNLKALAKRSARFHNNYTSSPLCAPARASFMAGQLPSRTRVYDNAAEYQSSIPTYAHHLRRAGYYTALSGKMHFVGPDQLHGFEERLTTDIYPADFGWTPDYRKPGERIDWWYHNLGSVTGAGVAEITNQMEYDDEVAFLANQKLYQLSRENDDESRRPWCLTVSFTHPHDPYVARRKFWDLYEDCEHLTPEVGAIPLDEQDPHSQRIMLSCDYQNFDVTEENVRRSRRAYFANISYLDEKVGELIDTLTRTRMLDDTLILFCSDHGDMLGERGLWFKMNFFEGSARVPLMIAGPGIAPGLHLTPTSNLDVTPTLADLAGISLEEVRPWTDGVSLVPMVNGVERTEPVLMEYAAEASYAPLVAIREGKWKYVYCALDPEQLFDLEADPLELTNLAENPRGPVDQATLTAFRDMRAAHWDMEAFDAAVRESQARRWVVYEALRNGAYYPWDHQPLQKASERYMRNHMNLDTLEESKRYPRGE
notes: choline-O-sulfatase (betC gene product) of Ensifer (Sinorhizobium) meliloti, GenBank AAC13371.1; gene codon optimized for E. coli and subcloned in pET26b+; expected 59 kDa with the His6-tag; Active-site Cys54 is unmodified (no formylglycine) as expressed in E. coli; two of the six cysteines form a disulfide bridge; also called COS; choline sulfatase; source: E. coli BL21 (DE3), purified (His-Trap …)
stoichiometry N [3]: 2
Km [4]: 11.1 ± 1.0 mM
kcat [4]: 0.27 ± 0.02 s⁻¹
kcat/Km [4]: 24.3 ± 2.84 M⁻¹ s⁻¹
Km (purified protein [5]): 75.8 ± 15.0 mM
kcat (purified protein [5]): 0.035 ± 0.004 s⁻¹
kcat/Km (purified protein [5]): 0.46 ± 0.11 M⁻¹ s⁻¹
Km (purified protein [6]): 11.8 ± 1.4 mM
kcat (purified protein [6]): 0.043 ± 0.007 s⁻¹
kcat/Km (purified protein [6]): 3.64 ± 0.73 M⁻¹ s⁻¹

— paper PMC6189696, “Choline sulfatase from Ensifer (Sinorhizobium) meliloti: Characterization of the unmodified enzyme” (Biochemistry and Biophysics Reports, 2015)
